Biological target: T1, GST-fused ABI1 (Arabidopsis thaliana, UniProt P49597 1-434)
T1 construct: ABI1, PP2C clade A phosphatase, Arabidopsis thaliana, TAIR At4g26080; also called GST-ABI1; recombinant ABI1; not shown: GST, N-terminal, kept
T1 sequence (looked up): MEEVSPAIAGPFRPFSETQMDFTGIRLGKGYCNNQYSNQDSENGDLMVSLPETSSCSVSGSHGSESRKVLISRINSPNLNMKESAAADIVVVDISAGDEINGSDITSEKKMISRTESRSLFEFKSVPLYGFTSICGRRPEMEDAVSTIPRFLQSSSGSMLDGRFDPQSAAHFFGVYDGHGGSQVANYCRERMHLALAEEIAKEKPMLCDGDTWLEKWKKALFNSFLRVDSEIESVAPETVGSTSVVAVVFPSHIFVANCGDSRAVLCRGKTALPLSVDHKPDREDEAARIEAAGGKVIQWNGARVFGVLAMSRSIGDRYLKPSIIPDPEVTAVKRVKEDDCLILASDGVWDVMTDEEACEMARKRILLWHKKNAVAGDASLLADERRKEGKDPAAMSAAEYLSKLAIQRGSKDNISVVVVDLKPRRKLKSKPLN
Test: pull-down; GST-ABI1 or GST bound to Glutathione-Sepharose 4B beads, incubated with 10 ug recombinant SnRK2.4; 50 mM Tris-HCl pH 8.0, 50 mM NaCl, 0.01 % Triton X-100, 40 mM DTT; 45 min at RT, 5 washes; immunoblot with anti-SnRK2.4/SnRK2.10
Details: both partners purified

- binding result: binds
B1: recombinant SnRK2.4 (enzyme, Arabidopsis thaliana, UniProt P43291 1-363, looked up)
chain: MDKYELVKDIGAGNFGVARLMKVKNSKELVAMKYIERGPKIDENVAREIINHRSLRHPNIIRFKEVVLTPTHLAIAMEYAAGGELFERICSAGRFSEDEARYFFQQLISGVSYCHAMQICHRDLKLENTLLDGSPAPRLKICDFGYSKSSLLHSRPKSTVGTPAYIAPEVLSRREYDGKMADVWSCGVTLYVMLVGAYPFEDQEDPKNFRKTIQKIMAVQYKIPDYVHISQDCKNLLSRIFVANSLKRITIAEIKKHSWFLKNLPRELTETAQAAYFKKENPTFSLQTVEEIMKIVADAKTPPPVSRSIGGFGWGGNGDADGKEEDAEDVEEEEEEVEEEEDDEDEYDKTVKEVHASGEVRIS
notes: SnRK2.4, SNF1-related protein kinase 2 of group 1, Arabidopsis thaliana, TAIR At1g10940

— paper PMC4907068, “Phosphatase ABI1 and okadaic acid-sensitive phosphoprotein phosphatases inhibit salt stress-activated SnRK2.4 kinase” (BMC Plant Biology, 2016)
